Experimental data taken from patent US20140162292A1 (TOKYO METROPOLITAN INSTITUTE OF MEDICAL SCIENCE, published 2014).
Where no end group is shown, it is not given here. [ ]: non-standard residue; d: D form. pS = N[C@@H](COP(=O)(O)O)C(=O)O

Experiments:
[1] = biological target: T1, mouse Keap1-DC (aa321-609) (mouse, UniProt Q9Z2X8 321-609); test: isothermal titration calorimetry
T1 construct: also called Keap1-DC domain
Experimental: (§1) First, isothermal titration calorimetry was performed using MicroCal iTC₂₀₀ System (GE Healthcare) at 25° C. […] The binding data were analyzed using Origin 7 software (GE healthcare).

[2] = biological target: T1, mouse Keap1-DC (aa321-609); test: isothermal titration calorimetry, 25 C, peptide injected into Keap1-DC
Experimental: as §1

T1 sequence (Q9Z2X8 321-609 limits assumed): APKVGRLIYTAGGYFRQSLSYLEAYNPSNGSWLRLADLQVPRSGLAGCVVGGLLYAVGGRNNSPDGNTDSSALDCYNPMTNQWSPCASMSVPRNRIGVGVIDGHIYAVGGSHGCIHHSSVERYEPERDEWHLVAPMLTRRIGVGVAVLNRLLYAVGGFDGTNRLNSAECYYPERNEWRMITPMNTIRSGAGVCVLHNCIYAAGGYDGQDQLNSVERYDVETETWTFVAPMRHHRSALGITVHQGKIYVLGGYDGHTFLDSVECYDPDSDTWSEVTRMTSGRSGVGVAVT

Row | fold binding affinity against KIR in the non-phosphorylated p62 [1] [times] | Ka [2] [M⁻¹] | Binder
1 | ~100 | 5.12e+06 | VDP[pS]TGELQ (also called phosphorylated p62-KIR; KIR in mouse phosphorylated p62) [phosphorylated KIR (VDP(pS)TGELQ) of mouse p62]
2 |  | 6.83e+06 | LDEETGEFL (also called ETGE motif of mouse Nrf2) [Nrf2-ETGE motif (76-LDEETGEFL-84) of mouse Nrf2]
3 |  | 56700 | VDPSTGELQ (also called non-phosphorylated p62-KIR; KIR in mouse non-phosphorylated p62) [non-phosphorylated KIR (348-VDPSTGELQ-356) of mouse p62]
